From patent publication US11591582, “TCRα homing endonuclease variants” (2seventy bio, Inc.) come the findings set out here.

This data set deals with T1, TCRα2.1 megaTAL (10.5 RVD) (synthetic).
T1 chain: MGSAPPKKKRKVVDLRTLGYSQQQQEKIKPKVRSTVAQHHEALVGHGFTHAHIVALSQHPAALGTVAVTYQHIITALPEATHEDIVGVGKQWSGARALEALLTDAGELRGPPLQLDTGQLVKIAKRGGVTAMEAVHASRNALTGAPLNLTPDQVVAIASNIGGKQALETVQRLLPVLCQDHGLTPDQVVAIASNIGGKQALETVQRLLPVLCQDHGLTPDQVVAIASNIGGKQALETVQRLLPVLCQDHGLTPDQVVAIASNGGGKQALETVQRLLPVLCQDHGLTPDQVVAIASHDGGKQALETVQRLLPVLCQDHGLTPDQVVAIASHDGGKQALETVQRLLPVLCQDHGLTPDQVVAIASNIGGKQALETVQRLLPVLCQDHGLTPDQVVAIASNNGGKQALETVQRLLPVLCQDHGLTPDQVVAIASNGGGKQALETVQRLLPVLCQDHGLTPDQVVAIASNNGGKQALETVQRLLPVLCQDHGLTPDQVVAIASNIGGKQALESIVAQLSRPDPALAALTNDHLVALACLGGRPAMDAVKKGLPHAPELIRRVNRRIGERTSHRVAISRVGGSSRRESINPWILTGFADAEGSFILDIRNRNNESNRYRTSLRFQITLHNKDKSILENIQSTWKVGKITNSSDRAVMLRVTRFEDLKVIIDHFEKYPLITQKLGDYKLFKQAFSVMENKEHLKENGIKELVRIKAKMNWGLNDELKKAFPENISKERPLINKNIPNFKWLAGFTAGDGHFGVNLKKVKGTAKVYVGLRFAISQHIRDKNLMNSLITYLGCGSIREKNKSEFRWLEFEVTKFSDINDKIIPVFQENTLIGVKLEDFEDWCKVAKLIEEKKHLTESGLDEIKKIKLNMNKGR
As to the kind of experiment: cell_activity; primary human T cells, CD3 knockdown. The conditions noted are these: tags: TALE fusion. An excerpt: A single amino acid substitution, E178D, that increased catalytic activity in another I-OnuI variant was inserted at the active site of the TCRα2.0 megaTAL to generate the TCRα2.1 megaTAL (SEQ ID NO: 8). In vitro transcribed mRNA encoding the TCRα2.1 megaTAL (e.g., SEQ ID NO: 15) was electroporated into primary human T cells. The TCRα2.1 megaTAL increased CD3 knockdown 10-fold compared to the TCRα2.0 megaTAL. FIG. 5.

B1: TCRα megaTAL target site (dsDNA)
DNA 1: AAATCCAGTGACAAGTCTGTCTGCCTATTCACCGATTTT
DNA 2: AAAATCGGTGAATAGGCAGACAGACTTGTCACTGGATTT
Molecule B1 showed an activity of 10 fold vs TCRα2.0 megaTAL.
